Common to all, as to assay: LC-MS/MS initial-rate acyltransferase assay
In one data set the target is T1, TLCD1 (Homo sapiens, UniProt Q96CP7).
T1 construct: full length, C-terminal FLAG and Strep tags kept; expressed in Flp-In T-REx 293 cells; purified in LMNG; monomer in micelles
T1 sequence (Q96CP7 36-247): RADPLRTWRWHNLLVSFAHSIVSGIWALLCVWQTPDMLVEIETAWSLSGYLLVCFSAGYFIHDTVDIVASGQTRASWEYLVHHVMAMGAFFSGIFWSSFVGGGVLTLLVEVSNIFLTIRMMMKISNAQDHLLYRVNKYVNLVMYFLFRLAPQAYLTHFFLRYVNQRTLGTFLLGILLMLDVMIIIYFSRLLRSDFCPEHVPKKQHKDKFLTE
It is filed as biochemical. To be noted: 100 uM oleoyl-CoA; pH 7.4, 30 C, 0.05% LMNG; shares the LPE site.

Substrate in data set [1]: CCCCCCCC/C=C\CCCCCCCC(=O)OC[C@@H](O)COP(=O)(O)OCCN
In kind it is biochemical, Caenorhabditis elegans. As to conditions: 100 uM myristoyl-CoA, pH 7.4, 30 C, 0.05% LMNG.

Substrate in data set [2]: CCCCCCCC/C=C\CCCCCCCC(=O)OC[C@@H](O)COP(=O)(O)OCCN
In kind it is biochemical, Homo sapiens. As to conditions: 100 uM oleoyl-CoA, pH 7.4, 30 C, 0.05% LMNG.

Substrate in data set [3]: CCCCCCCC/C=C\CCCCCCCC(=O)OC[C@@H](O)COP(=O)(O)OCCN
It is filed as biochemical, Saccharomyces cerevisiae. To be noted: 100 uM palmitoleoyl-CoA, pH 7.4, 30 C, 0.05% LMNG.

Take `Cc1ncc(C[n+]2csc(CCO)c2C)c(N)n1` [thiamine]: the “LC-MS/MS initial-rate acyltransferase assay” value on TLCD1 is listed as “a linear increase in the initial reaction rate (Vo) even at millimolar thiamine levels”.

B1: FLD-1 (Caenorhabditis elegans) (protein)
chain: MRQLAELLTDLLGPVPTMFLWVIVSFAFFRALQFIVRWYLFGKWTWPNFNFFDIRNRIRRRRRGGQEAENTENPPENEAEAGEQVEQEPEPDSRDLSAIPPNKKWRISNECVSLFHSVISGLWAAYALLYYKQLVQDLVNYRCDVAINLVLMSAGYLFHDLVDLLVNEQSARIIELLFHHVVVLSAFAVTMFFNRFLGVVVFGLLMELNSIFLHSRSLLNLYGVDKKSPSFRIIALLNMVTLFAFRLCVSAYLVYFVVVSIPDLEWYVSIINGLVIASLASTNTVLTYRLLAADGLLGSRRTRRTPAATAETQVGDVESGPLRTQVEDEDHHTIGVQTIHGTTEDATQTV
notes: codon-optimised, C-terminal His tag cut off by Factor Xa; expressed in S. cerevisiae BJ2168; purified in LMNG
Turning to B1, in data set [1], the Km amounted to 10.1 µM and the kcat came out at 0.608 s⁻¹.

B2: TLCD1 (Homo sapiens) (protein)
chain: T1 sequence (Q96CP7 36-247)
notes: full length, C-terminal FLAG and Strep tags kept; expressed in Flp-In T-REx 293 cells; purified in LMNG; monomer in micelles
Take B2: in data set [2], the Km was determined as 67.5 µM and the kcat turned out to be 0.348 s⁻¹.

B3: YPR114w (Saccharomyces cerevisiae S288C) (protein)
chain: MDVLLSLPQPELFKTTVIPFLANRNIIKSEAILSNLHSIFYVAIFYHIWFLFGKWILFPHLVKWKLDYDQKHNVKKDEKTTSERQAQHYKKKYTSLINQSSVHLISLLQSIVVLYYSLKFLLDPKASAEPYQTSHSRVFTENRDTQVICIFAIGYFVWDIYISTMYSTFPFVVHGIISTVVFCIGLKPYIQYYAPVFLMFELSNPSLNFRWFGIKFLPQKSKFCSLLLLLNNLTLMVVFFAARIAWGWFQIGKLCYDFYQVRNEPGFLVFDTIVILAGNFVLDILNVIWFSTMVSVAAKVLKKGESVDKVTKNEQ
notes: full length, C-terminal His tag cut off by Factor Xa; expressed in S. cerevisiae BJ2168; purified in LMNG
For B3, in data set [3], the Km is on record as 16.7 µM and the kcat is 2.225 s⁻¹.

(Values after article PMC11838012, “TRAM-LAG1-CLN8 family proteins are acyltransferases regulating phospholipid composition” (Science Advances, 2025).)
